Where only a bound is given, the exact number is not on record here.

Common to all, as to details: remark: other sources report otherwise
In test [1] the target is HLA-A*0201 on mild-acid treated JY cells (human). Nature of the test: competition vs FL-reference peptide, JY cells.
Test [2] has the same target. Description: competition vs FL-reference peptide, JY cells, 26°C 3 hr.
For test [3] the target is unchanged. Nature of the test: competition vs FL-reference peptide, JY cells, 4°C 24 hr.
Test [4] shares this target. Description: competition vs FL-reference peptide, JY cells, 26°C 24 hr.
Test [5] has the same target.

Take FLPSDFFPSV [hepatitis B nucleocapsid peptide …]: the IC50 (usually the concentration at which inhibition is half-maximal) in test [1] was found to be 0.4 µM.
Still for that read-out and setting: the result for DLMGYIPLV [HCVcore-132] reads 5 µM.
TLGIVCPI [HPV16 E7 86-93]: the IC50 in test [1] was found to be 0.7 µM; in test [2], 6.5 µM; in test [3], 0.7 µM; in test [4], 3.1 µM.
For the molecule PLEEELPRL [HBV Pol 594-602], the HLA molecules detectable after 2 hr at 37°C (NS = non stable) in test [5] was below 10%.
Molecule WLSLLVPFV [HBV surface 335] registered an IC50 in test [1] of 1 µM.

For the origin of these results see patent US20070025968A1, “Methods for selecting and producing T cell peptide epitopes and vaccines incorporating said selected epitopes” (priority 1996, published 2007).
